# According to patent US20040038876A1 (published 2004):
# T1: Shh receptor molecules on C3H10T1/2 cells (UniProt Q61115 1-1434)
# T1 sequence (looked up): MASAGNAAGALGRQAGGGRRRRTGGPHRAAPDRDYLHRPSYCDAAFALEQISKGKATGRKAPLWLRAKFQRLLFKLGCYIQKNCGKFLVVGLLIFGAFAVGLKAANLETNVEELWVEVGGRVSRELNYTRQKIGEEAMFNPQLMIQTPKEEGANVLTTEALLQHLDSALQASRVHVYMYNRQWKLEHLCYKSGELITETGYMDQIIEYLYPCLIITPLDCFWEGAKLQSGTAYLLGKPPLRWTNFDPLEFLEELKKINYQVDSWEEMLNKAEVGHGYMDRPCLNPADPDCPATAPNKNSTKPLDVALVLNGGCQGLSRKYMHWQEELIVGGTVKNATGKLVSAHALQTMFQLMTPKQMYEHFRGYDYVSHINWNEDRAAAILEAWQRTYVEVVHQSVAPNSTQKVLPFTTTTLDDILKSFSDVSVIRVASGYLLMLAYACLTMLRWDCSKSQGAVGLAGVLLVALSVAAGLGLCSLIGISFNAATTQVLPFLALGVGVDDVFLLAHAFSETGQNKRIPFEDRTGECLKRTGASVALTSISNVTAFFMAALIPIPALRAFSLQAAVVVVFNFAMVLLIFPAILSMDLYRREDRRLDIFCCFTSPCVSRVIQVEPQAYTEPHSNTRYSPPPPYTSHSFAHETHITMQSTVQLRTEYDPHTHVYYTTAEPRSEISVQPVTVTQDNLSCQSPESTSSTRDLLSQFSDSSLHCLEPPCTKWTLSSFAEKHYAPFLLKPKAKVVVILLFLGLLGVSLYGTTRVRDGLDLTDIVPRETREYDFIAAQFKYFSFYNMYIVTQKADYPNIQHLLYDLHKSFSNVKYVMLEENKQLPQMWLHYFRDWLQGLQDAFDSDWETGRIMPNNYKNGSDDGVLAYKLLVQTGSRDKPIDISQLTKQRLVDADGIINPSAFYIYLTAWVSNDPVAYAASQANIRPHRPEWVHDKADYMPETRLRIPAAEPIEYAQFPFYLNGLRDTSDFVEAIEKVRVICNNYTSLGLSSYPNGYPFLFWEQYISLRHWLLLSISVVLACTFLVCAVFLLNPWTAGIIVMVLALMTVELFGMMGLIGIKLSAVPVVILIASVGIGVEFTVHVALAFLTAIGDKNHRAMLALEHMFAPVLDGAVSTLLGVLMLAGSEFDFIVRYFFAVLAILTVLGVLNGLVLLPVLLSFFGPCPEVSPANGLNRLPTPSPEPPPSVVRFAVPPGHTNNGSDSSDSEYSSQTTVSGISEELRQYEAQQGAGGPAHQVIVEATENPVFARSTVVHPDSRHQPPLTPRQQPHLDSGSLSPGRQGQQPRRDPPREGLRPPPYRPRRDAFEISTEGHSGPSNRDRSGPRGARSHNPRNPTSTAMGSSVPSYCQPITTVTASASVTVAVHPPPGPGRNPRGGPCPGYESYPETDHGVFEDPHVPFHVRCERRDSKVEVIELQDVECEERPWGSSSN
# Molecular target: T1, Shh receptor molecules on C3H10T1/2 …
# Experiment: cell-based or functional assay
row,Binder,Potency (IC50) in C3H10T1/2 assay (alkaline phosphatase induction)
1,"mutant 17 (Shh C1II/A169C + N27C), unmodified (ligand) not shown",0.4 µg/mL
2,"mutant 17 (Shh C1II/A169C + N27C), 5 K PEG (ligand, 5 K PEG maleimide on thiol of Cys27, Cys169) not shown",4 µg/mL
3,"mutant 19 (Shh C1II/A169C + Y57C), HPE-modified (ligand, beta-(4-hydroxyphenyl) ethylmaleimide on thiol of Cys57, Cys169) not shown",0.3 µg/mL
4,"mutant 18 (Shh C1II/A169C + N46C), Napth-modified (ligand, N-(1-naphthyl) maleimide on thiol of Cys46, Cys169) not shown",0.4 µg/mL
5,"mutant 17 (Shh C1II/A169C + N27C), Napth-modified (ligand, N-(1-naphthyl) maleimide on thiol of Cys27, Cys169) not shown",1.5 µg/mL
6,"mutant 20 (Shh C1II/A169C + N68C), Pyrene-modified (ligand, N-(1-pyrenyl) maleimide on thiol of Cys68, Cys169) not shown",0.3 µg/mL
7,"mutant 17 (Shh C1II/A169C + N27C), NEM-modified (ligand, N-ethyl maleimide on thiol of Cys27, Cys169) not shown",0.3 µg/mL
8,"mutant 18 (Shh C1II/A169C + N46C), 20 K PEG (ligand, 20 K PEG maleimide on thiol of Cys46, Cys169) not shown",0.3 µg/mL
9,"mutant 17 (Shh C1II/A169C + N27C), HPE-modified (ligand, beta-(4-hydroxyphenyl) ethylmaleimide on thiol of Cys27, Cys169) not shown",0.5 µg/mL
10,"mutant 19 (Shh C1II/A169C + Y57C), 5 K PEG (ligand, 5 K PEG maleimide on thiol of Cys57, Cys169) not shown",0.2 µg/mL
11,"mutant 19 (Shh C1II/A169C + Y57C), Pyrene-modified (ligand, N-(1-pyrenyl) maleimide on thiol of Cys57, Cys169) not shown",0.3 µg/mL
12,"mutant 20 (Shh C1II/A169C + N68C), NEM-modified (ligand, N-ethyl maleimide on thiol of Cys68, Cys169) not shown",0.2 µg/mL
13,"mutant 20 (Shh C1II/A169C + N68C), HPE-modified (ligand, beta-(4-hydroxyphenyl) ethylmaleimide on thiol of Cys68, Cys169) not shown",0.2 µg/mL
14,"mutant 20 (Shh C1II/A169C + N68C), Napth-modified (ligand, N-(1-naphthyl) maleimide on thiol of Cys68, Cys169) not shown",0.3 µg/mL
15,"mutant 17 (Shh C1II/A169C + N27C), 20 K PEG (ligand, 20 K PEG maleimide on thiol of Cys27, Cys169) not shown",8 µg/mL
16,"mutant 20 (Shh C1II/A169C + N68C), 20 K PEG (ligand, 20 K PEG maleimide on thiol of Cys68, Cys169) not shown",0.4 µg/mL
17,"mutant 18 (Shh C1II/A169C + N46C), unmodified (ligand) not shown",0.4 µg/mL
18,"mutant 19 (Shh C1II/A169C + Y57C), 20 K PEG (ligand, 20 K PEG maleimide on thiol of Cys57, Cys169) not shown",0.3 µg/mL
19,"mutant 18 (Shh C1II/A169C + N46C), Pyrene-modified (ligand, N-(1-pyrenyl) maleimide on thiol of Cys46, Cys169) not shown",0.5 µg/mL
20,"mutant 19 (Shh C1II/A169C + Y57C), unmodified (ligand) not shown",0.2 µg/mL
21,"mutant 17 (Shh C1II/A169C + N27C), Pyrene-modified (ligand, N-(1-pyrenyl) maleimide on thiol of Cys27, Cys169) not shown",3 µg/mL
22,"mutant 19 (Shh C1II/A169C + Y57C), NEM-modified (ligand, N-ethyl maleimide on thiol of Cys57, Cys169) not shown",0.2 µg/mL
23,"mutant 20 (Shh C1II/A169C + N68C), 5 K PEG (ligand, 5 K PEG maleimide on thiol of Cys68, Cys169) not shown",0.2 µg/mL
24,"mutant 20 (Shh C1II/A169C + N68C), unmodified (ligand) not shown",0.3 µg/mL
25,"mutant 18 (Shh C1II/A169C + N46C), 5 K PEG (ligand, 5 K PEG maleimide on thiol of Cys46, Cys169) not shown",0.3 µg/mL
26,"mutant 18 (Shh C1II/A169C + N46C), NEM-modified (ligand, N-ethyl maleimide on thiol of Cys46, Cys169) not shown",0.2 µg/mL
27,"mutant 18 (Shh C1II/A169C + N46C), HPE-modified (ligand, beta-(4-hydroxyphenyl) ethylmaleimide on thiol of Cys46, Cys169) not shown",0.4 µg/mL
28,"mutant 19 (Shh C1II/A169C + Y57C), Napth-modified (ligand, N-(1-naphthyl) maleimide on thiol of Cys57, Cys169) not shown",0.2 µg/mL

# Second part, the binder after the results:
row,Potency (IC50) in C3H10T1/2 assay (alkaline phosphatase induction),Binder
1,0.2 µg/mL,"mutant 24 (Shh C1II/A169C + S112C), NEM-modified (ligand, N-ethyl maleimide on thiol of Cys112, Cys169) not shown"
2,2 µg/mL,"mutant 22 (Shh C1II/A169C + S154C), NEM-modified (ligand, N-ethyl maleimide on thiol of Cys154, Cys169) not shown"
3,3 µg/mL,"mutant 22 (Shh C1II/A169C + S154C), Pyrene-modified (ligand, N-(1-pyrenyl) maleimide on thiol of Cys154, Cys169) not shown"
4,0.4 µg/mL,"mutant 24 (Shh C1II/A169C + S112C), unmodified (ligand) not shown"
5,0.2 µg/mL,"mutant 23 (Shh C1II/A169C + K82C), unmodified (ligand) not shown"
6,0.6 µg/mL,"mutant 24 (Shh C1II/A169C + S112C), 5 K PEG (ligand, 5 K PEG maleimide on thiol of Cys112, Cys169) not shown"
7,2 µg/mL,"mutant 21 (Shh C1II/A169C + N92C), NEM-modified (ligand, N-ethyl maleimide on thiol of Cys92, Cys169) not shown"
8,2 µg/mL,"mutant 22 (Shh C1II/A169C + S154C), Napth-modified (ligand, N-(1-naphthyl) maleimide on thiol of Cys154, Cys169) not shown"
9,3 µg/mL,"mutant 21 (Shh C1II/A169C + N92C), Pyrene-modified (ligand, N-(1-pyrenyl) maleimide on thiol of Cys92, Cys169) not shown"
10,1 µg/mL,"mutant 22 (Shh C1II/A169C + S154C), unmodified (ligand) not shown"
11,2 µg/mL,"mutant 22 (Shh C1II/A169C + S154C), HPE-modified (ligand, beta-(4-hydroxyphenyl) ethylmaleimide on thiol of Cys154, Cys169) not shown"
12,0.4 µg/mL,"mutant 25 (Shh C1II/A169C + S133C), unmodified (ligand) not shown"
13,2 µg/mL,"mutant 24 (Shh C1II/A169C + S112C), 20 K PEG (ligand, 20 K PEG maleimide on thiol of Cys112, Cys169) not shown"
14,0.3 µg/mL,"mutant 24 (Shh C1II/A169C + S112C), Napth-modified (ligand, N-(1-naphthyl) maleimide on thiol of Cys112, Cys169) not shown"
15,4 µg/mL,"mutant 21 (Shh C1II/A169C + N92C), Napth-modified (ligand, N-(1-naphthyl) maleimide on thiol of Cys92, Cys169) not shown"
16,0.2 µg/mL,"mutant 24 (Shh C1II/A169C + S112C), HPE-modified (ligand, beta-(4-hydroxyphenyl) ethylmaleimide on thiol of Cys112, Cys169) not shown"
17,5 µg/mL,"mutant 22 (Shh C1II/A169C + S154C), 5 K PEG (ligand, 5 K PEG maleimide on thiol of Cys154, Cys169) not shown"
18,1.5 µg/mL,"mutant 21 (Shh C1II/A169C + N92C), unmodified (ligand) not shown"
19,0.2 µg/mL,"mutant 25 (Shh C1II/A169C + S133C), NEM-modified (ligand, N-ethyl maleimide on thiol of Cys133, Cys169) not shown"
20,2 µg/mL,"mutant 21 (Shh C1II/A169C + N92C), HPE-modified (ligand, beta-(4-hydroxyphenyl) ethylmaleimide on thiol of Cys92, Cys169) not shown"
21,> 20 µg/mL,"mutant 21 (Shh C1II/A169C + N92C), 20 K PEG (ligand, 20 K PEG maleimide on thiol of Cys92, Cys169) not shown"
22,> 20 µg/mL,"mutant 21 (Shh C1II/A169C + N92C), 5 K PEG (ligand, 5 K PEG maleimide on thiol of Cys92, Cys169) not shown"
23,8 µg/mL,"mutant 22 (Shh C1II/A169C + S154C), 20 K PEG (ligand, 20 K PEG maleimide on thiol of Cys154, Cys169) not shown"
24,0.25 µg/mL,"mutant 24 (Shh C1II/A169C + S112C), Pyrene-modified (ligand, N-(1-pyrenyl) maleimide on thiol of Cys112, Cys169) not shown"
